From patent publication US20230272011A1 (AVACTA LIFE SCIENCES, published 2023)

Assays:
human serum albumin [1] = target: T1, human serum albumin (human, UniProt P02768 25-609); test: Biacore, immobilised HSA, pH 7.4
T1 construct: mature; Bought protein; biotinylated in the Octet and HTRF assays; also called HSA; HuSA
Procedure: Affinities for mouse, human, and cynomolgus serum were also measured at pH 7.4 for four (4) AFFIMER® binders using surface plasmon resonance (SPR) (FIG. 5, Table 5). […] A concentration titration of AFFIMER® monomers was run as analyte at a flow rate of 30 μl/min or 60 μl/min. Fc2-1, Fc3-1 and Fc4-1 kinetic data was blank subtracted and fit to a 1:1 Langmuir binding model (BIAcore Evalution software; GE) to calculate KD values.
The AFFIMER® polypeptides were produced and purified from E. coli as described in Example 3.

[2] = target: T2, human PD-L1-Fc (R&D Systems) chimeric protein (human, UniProt Q9NZQ7 19-239); test: SPR (Biacore T200), PD-L1-Fc amine-coupled to CM5, Affimer analyte; apparent KD
T2 construct: Bought reagent; also called rhPD-L1-Fc; huPD-L1; Fc part of the bought chimera not given, not described
T2 sequence (Q9NZQ7 19-239, change not shown): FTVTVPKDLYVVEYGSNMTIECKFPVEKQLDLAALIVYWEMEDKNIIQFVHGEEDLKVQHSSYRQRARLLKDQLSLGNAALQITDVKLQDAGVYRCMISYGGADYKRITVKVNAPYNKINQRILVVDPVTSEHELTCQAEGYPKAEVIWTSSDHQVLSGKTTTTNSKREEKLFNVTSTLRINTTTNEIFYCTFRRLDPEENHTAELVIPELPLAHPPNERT
Procedure: (§1) ILF dimer production from E. coli was performed as described in Example 3. Briefly, protein was purified using three stages: affinity capture, IEX, and preparative SEC. […] To analyze PD-L1-Fc binding kinetics, a Biacore T200 kinetic analysis was performed using running buffer HBS-EP+ and series S sensor CM5 (GE Healthcare) chip Fc2 immobilized with PD-L1-Fc (R&D Systems) in 10 mM sodium acetate pH 4.0 using amine coupling reagents (GE Healthcare). The concentration titration of ILF AFFIMER® polypeptides was run as analyte at a flow rate of 30 μl/min. […] with 3 mM NaOH (GE healthcare) for 20 seconds at 20 μl/min flow rate. The Fc2-1 data blank was subtracted and fit to a 1:1 Langmuir binding model (Biacore evaluation software; GE) to calculate an apparent KD value.

[3] = target: T2, human PD-L1-Fc (R&D Systems) chimeric …; test: SPR (Biacore T200), PD-L1-Fc amine-coupled to CM5, Affimer analyte
Procedure: as §1

human serum albumin [4] = target: T1, human serum albumin; test: SPR (Biacore), immobilised HSA, Affimer analyte
human serum albumin [5] = target: T1, human serum albumin; test: SPR (Biacore) binding response to HSA at pH 7.4, Affimer at 50 nM
Description: Final clones were sequence-verified, produced from E. coli, and affinity purified as described in Example 3.

B1: HSA-41 DI (designed binder)
chain: MIPRGLSEAKPATPEIQEIVDKVKPQLEEKTNETYGKLEAVQYKTQVLANFFQRRWPGSTNYYIKVRAGDNKYMHLKVFNGPWKFRNTDRGADRVLTGYQVDKNKDDELTGFGGGGSGGGGSGGGGSGGGGSGGGGSGGGGSMIPRGLSEAKPATPEIQEIVDKVKPQLEEKTNETYGKLEAVQYKTQVLANFFQRRWPGSTNYYIKVRAGDNKYMHLKVFNGPWKFRNTDRGADRVLTGYQVDKNKDDELTGFHHHHHH
notes: also called ILF homodimer with flexible linker; ILF dimer HSA-41 DI
For B1, the Kd (human serum albumin [1]) was 0.201 nM, the koff (human serum albumin [1]) was 0.000959 s⁻¹ and the kon (human serum albumin [1]) was 4.77e+06 M⁻¹ s⁻¹.

B2: AVA04-236 (designed binder)
chain: MIPRGLSEAKPATPEIQEIVDKVKPQLEEKTNETYGKLEAVQYKTQVLAKEHGPDSWWSTNYYIKVRAGDNKYMHLKVFNGPQEKNQWVEEADRVLTGYQVDKNKDDELTGF
B2 gave a Kd [2] of 5.43 nM, a koff [3] of 0.00977 s⁻¹ and a kon [3] of 1.8e+06 M⁻¹ s⁻¹.

B3: AVA04-269 (designed binder)
chain: MIPRGLSEAKPATPEIQEIVDKVKPQLEEKTNETYGKLEAVQYKTQVLAKEYGPEEWWSTNYYIKVRAGDNKYMHLKVFNGPGDYEQVLIHADRVLTGYQVDKNKDDELTGF
Binder B3 has a Kd [2] of 1.68 nM, a koff [3] of 0.00345 s⁻¹ and a kon [3] of 2.05e+06 M⁻¹ s⁻¹.

B4: AVA04-236 XT7 (designed binder)
chain: MIPRGLSEAKPATPEIQEIVDKVKPQLEEKTNETYGKLEAVQYKTQVLAKEHGPDSWWSTNYYIKVRAGDNKYMHLKVFNGPQEKNQWVEEADRVLTGYQVDKNKDDELTGFGGGGSGGGGSGGGGSGGGGSGGGGSGGGGSMIPRGLSEAKPATPEIQEIVDKVKPQLEEKTNETYGKLEAVQYKTQVLANFFQRRWPGSTNYYIKVRAGDNKYMHLKVFNGPWKFRNTDRGADRVLTGYQVDKNKDDELTGFHHHHHH
B4 gave a Kd (human serum albumin [4]) of 13.3 nM, a koff (human serum albumin [4]) of 0.00336 s⁻¹ and a kon (human serum albumin [4]) of 253000 M⁻¹ s⁻¹. The Kd [2] was 4.86 nM, the koff [3] was 0.00763 s⁻¹ and the kon [3] was 1.57e+06 M⁻¹ s⁻¹.

B5: AVA04-269 XT11 (designed binder)
chain: MIPRGLSEAKPATPEIQEIVDKVKPQLEEKTNETYGKLEAVQYKTQVLAKEYGPEEWWSTNYYIKVRAGDNKYMHLKVFNGPGDYEQVLIHADRVLTGYQVDKNKDDELTGFGGGGSGGGGSGGGGSGGGGSGGGGSGGGGSMIPRGLSEAKPATPEIQEIVDKVKPQLEEKTNETYGKLEAVQYKTQVLANFFQRRWPGSTNYYIKVRAGDNKYMHLKVFNGPWKFRNTDRGADRVLTGYQVDKNKDDELTGFHHHHHH
B5 gave a Kd (human serum albumin [4]) of 15.5 nM, a koff (human serum albumin [4]) of 0.00234 s⁻¹ and a kon (human serum albumin [4]) of 151000 M⁻¹ s⁻¹. For the same binder, the Kd [2] was 4.45 nM, the koff [3] was 0.00354 s⁻¹ and the kon [3] was 796000 M⁻¹ s⁻¹.

B6: HSA-41 BK (designed binder)
chain: MIPRGLSEAKPATPEIQEIVDKVKPQLEEKTNETYGKLEAVQYKTQVLANFFQRRWPGSTNYYIKVRAGDNKYMHLKVFNGPWKFRNTDRGADRVLTGYQVDKNKDDELTGFAEAAAKEAAAKEAAAKEAAAKEAAAKEAAAKMIPRGLSEAKPATPEIQEIVDKVKPQLEEKTNETYGKLEAVQYKTQVLANFFQRRWPGSTNYYIKVRAGDNKYMHLKVFNGPWKFRNTDRGADRVLTGYQVDKNKDDELTGFHHHHHH
notes: also called ILF homodimer with rigid linker
B6 was tested, and the Kd (human serum albumin [1]) was 0.128 nM, the koff (human serum albumin [1]) was 0.000994 s⁻¹ and the kon (human serum albumin [1]) was 7.74e+06 M⁻¹ s⁻¹.

B7: HSA-41 D89A (designed binder)
chain: MIPRGLSEAKPATPEIQEIVDKVKPQLEEKTNETYGKLEAVQYKTQVLANFFQRRWPGSTNYYIKVRAGDNKYMHLKVFNGPWKFRNTARGADRVLTGYQVDKNKDDELTGFHHHHHH
B7 was tested, and the “binding response” value (human serum albumin [5]) was 26.1.

B8: HSA-41 F85A (designed binder)
chain: MIPRGLSEAKPATPEIQEIVDKVKPQLEEKTNETYGKLEAVQYKTQVLANFFQRRWPGSTNYYIKVRAGDNKYMHLKVFNGPWKARNTDRGADRVLTGYQVDKNKDDELTGFHHHHHH
B8 was tested, and the “binding response” value (human serum albumin [5]) was 26.6.

B9: HSA-41 R54A (designed binder)
chain: MIPRGLSEAKPATPEIQEIVDKVKPQLEEKTNETYGKLEAVQYKTQVLANFFQARWPGSTNYYIKVRAGDNKYMHLKVFNGPWKFRNTDRGADRVLTGYQVDKNKDDELTGFHHHHHH
B9 was tested, and the “binding response” value (human serum albumin [5]) was 11.9.

B10: HSA-41 R86A (designed binder)
chain: MIPRGLSEAKPATPEIQEIVDKVKPQLEEKTNETYGKLEAVQYKTQVLANFFQRRWPGSTNYYIKVRAGDNKYMHLKVFNGPWKFANTDRGADRVLTGYQVDKNKDDELTGFHHHHHH
With B10 the “binding response” value (human serum albumin [5]) was 19.1.

B11: HSA-41 G58A (designed binder)
chain: MIPRGLSEAKPATPEIQEIVDKVKPQLEEKTNETYGKLEAVQYKTQVLANFFQRRWPASTNYYIKVRAGDNKYMHLKVFNGPWKFRNTDRGADRVLTGYQVDKNKDDELTGFHHHHHH
B11 was tested, and the “binding response” value (human serum albumin [5]) was 6.5.

B12: HSA-41 T88A (designed binder)
chain: MIPRGLSEAKPATPEIQEIVDKVKPQLEEKTNETYGKLEAVQYKTQVLANFFQRRWPGSTNYYIKVRAGDNKYMHLKVFNGPWKFRNADRGADRVLTGYQVDKNKDDELTGFHHHHHH
In the case of B12, the “binding response” value (human serum albumin [5]) is reported as 27.9.

B13: HSA-41 K84A (designed binder)
chain: MIPRGLSEAKPATPEIQEIVDKVKPQLEEKTNETYGKLEAVQYKTQVLANFFQRRWPGSTNYYIKVRAGDNKYMHLKVFNGPWAFRNTDRGADRVLTGYQVDKNKDDELTGFHHHHHH
B13 was tested, and the “binding response” value (human serum albumin [5]) was 23.5.

B14: HSA-41 P57A (designed binder)
chain: MIPRGLSEAKPATPEIQEIVDKVKPQLEEKTNETYGKLEAVQYKTQVLANFFQRRWAGSTNYYIKVRAGDNKYMHLKVFNGPWKFRNTDRGADRVLTGYQVDKNKDDELTGFHHHHHH
B14 was tested, and the “binding response” value (human serum albumin [5]) was 23.2.

B15: HSA-41 R90A (designed binder)
chain: MIPRGLSEAKPATPEIQEIVDKVKPQLEEKTNETYGKLEAVQYKTQVLANFFQRRWPGSTNYYIKVRAGDNKYMHLKVFNGPWKFRNTDAGADRVLTGYQVDKNKDDELTGFHHHHHH
B15 was tested, and the “binding response” value (human serum albumin [5]) was 17.2.

B16: HSA-41 N50A (designed binder)
chain: MIPRGLSEAKPATPEIQEIVDKVKPQLEEKTNETYGKLEAVQYKTQVLAAFFQRRWPGSTNYYIKVRAGDNKYMHLKVFNGPWKFRNTDRGADRVLTGYQVDKNKDDELTGFHHHHHH
For B16, the “binding response” value (human serum albumin [5]) was 13.

B17: HSA-41 N87A (designed binder)
chain: MIPRGLSEAKPATPEIQEIVDKVKPQLEEKTNETYGKLEAVQYKTQVLANFFQRRWPGSTNYYIKVRAGDNKYMHLKVFNGPWKFRATDRGADRVLTGYQVDKNKDDELTGFHHHHHH
B17 was tested, and the “binding response” value (human serum albumin [5]) was 25.8.

B18: HSA-41 Q53A (designed binder)
chain: MIPRGLSEAKPATPEIQEIVDKVKPQLEEKTNETYGKLEAVQYKTQVLANFFARRWPGSTNYYIKVRAGDNKYMHLKVFNGPWKFRNTDRGADRVLTGYQVDKNKDDELTGFHHHHHH
B18 was tested, and the “binding response” value (human serum albumin [5]) was 23.5.

B19: HSA-41 G91A (designed binder)
chain: MIPRGLSEAKPATPEIQEIVDKVKPQLEEKTNETYGKLEAVQYKTQVLANFFQRRWPGSTNYYIKVRAGDNKYMHLKVFNGPWKFRNTDRAADRVLTGYQVDKNKDDELTGFHHHHHH
For B19, the “binding response” value (human serum albumin [5]) was 17.8.

B20: AVA04-261 (designed binder)
chain: MIPRGLSEAKPATPEIQEIVDKVKPQLEEKTNETYGKLEAVQYKTQVLAHAYGPRDWDSTNYYIKVRAGDNKYMHLKVFNGPPADHVLEEAADRVLTGYQVDKNKDDELTGF
Binder B20 has a Kd [2] of 2.95 nM, a koff [3] of 0.0109 s⁻¹ and a kon [3] of 3.68e+06 M⁻¹ s⁻¹.
